Three molecules from patent US20120301493A1 (UNIVERSIDADE DE SANTIAGO DE COMPOSTELA, published 2012) can be followed below.

B1: muNS (1-448)-HA (other)
chain: MASTKWGDKPMSVSMSHDGSSIRSAASQFLSGPLFHSTPIPPQRKTVLLKFMIGDELVTVQGALAPFDEYWYDNQPLLAQAVEMLASADRLRQFEHYEKFLLKKGHQITEIMNRLRLFFTDVLKVKMEADALPALAQYLMVGTLEAVSTADSPDACVPVTSKILAKQQTIAKSPGRLDEEEYNVIRSRFLTHEVFDLTSDLPGVQPFMDMYYATVPRADSTGWCVYRRKGLLIHAPDEQFSDLTIFSTRLTASRELQLVAGDVAVACFDLMDVSDIAPSHHASVQEERTLGTSRYSNVTANDHPLVFFSPSALRWAIDHACTDSLVSTRNIRVCVGIDPLVTRWTRDGVQEAAILMDDKLPSAGRARMALRTLLLARRSPMTSFLLGALKQSGGQLMEHYRCDAANRYGSPTVPVSHSPPCSKCPELKEQITKLSSSPLPKIDSNVGP
notes: also called N-terminus domain (muNS(1-448)); N-terminus region
B2: muNS (1-380)-HA (other)
chain: MASTKWGDKPMSVSMSHDGSSIRSAASQFLSGPLFHSTPIPPQRKTVLLKFMIGDELVTVQGALAPFDEYWYDNQPLLAQAVEMLASADRLRQFEHYEKFLLKKGHQITEIMNRLRLFFTDVLKVKMEADALPALAQYLMVGTLEAVSTADSPDACVPVTSKILAKQQTIAKSPGRLDEEEYNVIRSRFLTHEVFDLTSDLPGVQPFMDMYYATVPRADSTGWCVYRRKGLLIHAPDEQFSDLTIFSTRLTASRELQLVAGDVAVACFDLMDVSDIAPSHHASVQEERTLGTSRYSNVTANDHPLVFFSPSALRWAIDHACTDSLVSTRNIRVCVGIDPLVTRWTRDGVQEAAILMDDKLPSAGRARMALRTLLLARRSP
B3: muNS (1-154)-HA (other)
chain: MASTKWGDKPMSVSMSHDGSSIRSAASQFLSGPLFHSTPIPPQRKTVLLKFMIGDELVTVQGALAPFDEYWYDNQPLLAQAVEMLASADRLRQFEHYEKFLLKKGHQITEIMNRLRLFFTDVLKVKMEADALPALAQYLMVGTLEAVSTADSPD

This test has as its target muNS-Mi, region 448-635 of avian reovirus S1133 muNS protein (avian Orthoreovirus (avian reovirus …)). As to the kind of experiment: co-expression with muNS-Mi in CEF cells, anti-HA immunofluorescence.
Turning to B1, the binding result is recorded as “no binding”.

In the case of B2, the binding result is on record as “no binding”.

On to B3, for which the binding result is recorded as “no binding”.
